Test results from patent US20230398228A1, “ERIBULIN-BASED ANTIBODY-DRUG CONJUGATES AND METHODS OF USE” (EISAI R&D MANAGEMENT CO., LTD., priority 2016, published 2023).
Read-outs that look alike come from different tables or passages of the source.

Tests used:
[1] = test system: SJSA-1 cells; experiment: Crystal Violet cytotoxicity assay (Examples 1 and 2), SJSA-1
Method: (§1) Typically, test reagents were serial diluted 1:4 in 2 mL deep-well dilution plates, starting at 1 μM (10 dilutions total). 100 μL of diluted samples were added to the cell plates (starting concentration of test samples at 500 nM). […] Medium was discarded, plates were washed once with 200 μL DPBS, stained with 50 μL of 0.2% Crystal Violet solution at room temperature for 15 min, and then washed extensively with tap water. Plates were air-dried, and Crystal Violet was dissolved with 200 μL of 1% SDS solution. Plates were read at 570 nm. Data was analyzed using GraphPad Prism 6. Assays were performed using a seeding density of 1,000 cells per well and compound exposure was for a total of 5 days. When shorter-term exposure was desired, medium containing cytotoxic agents was removed after 4 hours and replaced with fresh growth medium prior to 5-day incubation. For OVCAR3, CaOV3, and NCI-H2110, cells were seeded at 3,000 cells/well and incubated for 5 days with ADC.
(§2) In vitro potency of prepared ADCs was assessed using a Crystal Violet assay as detailed in section 1.4.1.
(§3) SJSA-1 cells are a human osteosarcoma tumor cell line that are negative for folate receptor alpha.
(§4) Typically, test reagents were serially-diluted 1:4 in 2 mL deep-well dilution plates, starting at 1 μM (10 dilutions total). 100 μL of diluted samples were added to the cell plates (starting concentration of test samples at 100 nM). […] Medium was discarded, plates were washed once with 200 μL DPBS, stained with 50 μL of 0.2% Crystal Violet solution at room temperature for 15 min, and then washed extensively with tap water. Plates were air-dried, and Crystal Violet was dissolved with 200 μL of 1% SDS solution. Plates were read at 570 nm. Data was analyzed using GraphPad Prism 6.

[2] = test system: IGROV1 cells; experiment: Serum stability assay, cytotoxicity readout on IGROV1
Method: (§5) Following incubation, samples were frozen and stored at −20° C. until evaluation in cytotoxicity and binding assays. For cytotoxicity analyses, samples were evaluated on IGROV1 and SJSA-1 cells, as detailed in section 1.4.1. For binding assessment, samples were evaluated using a solution-based MSD ECL assay.
(§6) ER-001161319 is maytansine-based ADC comprising the same cleavable linker as VCP-eribulin, maleimido-PEG2-Val-Cit-pAB. PBS and serum controls were included to correct for any serum effects on assay performance.

[3] = test system: IGROV1 cells; experiment: Crystal Violet cytotoxicity assay (Examples 1 and 2), IGROV1
Method: as §1, §2, §3
Typically, test reagents were serially-diluted 1:4 in 2 mL deep-well dilution plates, starting at 1 μM (10 dilutions total). […] Plates were read at 570 nm. Data was analyzed using GraphPad Prism 6.

[4] = test system: NCI-H2110 cells; details: read-out: IC50 on NCI-H2110; Example 1
Method: as §1, §3, §4

[5] = test system: SJSA-1 cells; experiment: Serum stability assay, cytotoxicity readout on SJSA-1
Method: as §5, §6

[6] = test system: OVCAR3 cells; experiment: Crystal Violet cytotoxicity assay (Examples 1 and 2), OVCAR3; details: read-out: Cytotoxicity (IC50) OVCAR3; OVCAR3 cells; mean of replicate experiments, where performed
Method: as §1, §3
Typically, test reagents were serially-diluted 1:4 in 2 mL deep-well dilution plates, starting at 1 μM (10 dilutions total). 100 μL of diluted samples were added to the cell plates (starting concentration of test samples at 100 nM). […] Plates were read at 570 nm. Data was analyzed using GraphPad Prism 6.

[7] = read-out: Cell-based cytotoxicity assay, EC50, Human Serum, 0 hr-PBS
[8] = read-out: Cell-based cytotoxicity assay, EC50, Human Serum, 0 hr-Serum
[9] = read-out: Cell-based cytotoxicity assay, EC50, Human Serum, 4 hr at 37° C.
[10] = read-out: Cell-based cytotoxicity assay, EC50, Human Serum, 24 hr at 37° C.
[11] = read-out: Cell-based cytotoxicity assay, EC50, Mouse Serum, 0 hr-Serum
[12] = read-out: Cell-based cytotoxicity assay, EC50, Mouse Serum, 4 hr at 37° C.
[13] = read-out: Cell-based cytotoxicity assay, EC50, Mouse Serum, 24 hr at 37° C.
[14] = read-out: Cell-based cytotoxicity assay, EC50, Mouse Serum, 48 hr at 37° C.
[15] = read-out: Cell-based cytotoxicity assay, EC50, PBS, 0 hr-PBS
[16] = read-out: Cell-based cytotoxicity assay, EC50, PBS, 0 hr-Serum
[17] = read-out: Cell-based cytotoxicity assay, EC50, PBS, 4 hr at 37° C.
[18] = read-out: Cell-based cytotoxicity assay, EC50, PBS, 24 hr at 37° C.
[19] = read-out: Cell-based cytotoxicity assay, EC50, PBS, 48 hr at 37° C.

## MORAb-003-PEG-pAB-duostatin 3 [M-0285]
[1]; Example 1 screening
  killing of FR-negative SJSA-1 cells (off-target), in words: little cytotoxicity
[1]; read-out: Cytotoxicity (IC50) SJSA-1, SJSA-1 cells, mean of replicate experiments, where performed
  IC50: > 100 nM
[2]; [7]
  EC50: 0.089 nM
[2]; [8]
  EC50: 0.078 nM
[2]; [9]
  EC50: 0.075 nM
[2]; [10]
  EC50: 0.074 nM
[2]; [11]
  EC50: 0.049 nM
[2]; [12]
  EC50: 0.049 nM
[2]; [13]
  EC50: 0.044 nM
[2]; [14]
  EC50: 0.051 nM
[2]; [15]
  EC50: 0.074 nM
[2]; [16]
  EC50: 0.063 nM
[2]; [17]
  EC50: 0.065 nM
[2]; [18]
  EC50: 0.059 nM
[2]; [19]
  EC50: 0.043 nM
[3]; Example 1 screening, IGROV1 versus SJSA-1
  cytotoxicity and specificity on IGROV1 cell line, in words: specific cytotoxicity
[3]; read-out: Cytotoxicity (IC50) IGROV1, IGROV1 cells, mean of replicate experiments, where performed
  IC50: 0.3 nM
[4]
  IC50: 14 nM
[5]; [7]
  EC50: > 10 nM
[5]; [8]
  EC50: > 10 nM
[5]; [9]
  EC50: > 10 nM
[5]; [10]
  EC50: > 10 nM
[5]; read-out: Cell-based cytotoxicity assay, EC50, Human Serum, 48 hr at 37° C.
  EC50: > 10 nM
[5]; read-out: Cell-based cytotoxicity assay, EC50, Mouse Serum, 0 hr-PBS
  EC50: > 10 nM
[5]; [11]
  EC50: > 10 nM
[5]; [12]
  EC50: > 10 nM
[5]; [13]
  EC50: > 10 nM
[5]; [14]
  EC50: > 10 nM
[5]; [15]
  EC50: > 10 nM
[5]; [16]
  EC50: > 10 nM
[5]; [17]
  EC50: > 10 nM
[5]; [18]
  EC50: > 10 nM
[5]; [19]
  EC50: > 10 nM
[6]
  IC50: 8.8 nM
